Assay results as given in patent US20150266962A1 (Pfizer, published 2015).

T1: recombinant human IL-13 receptor alpha 2 (hIL-13-Rα2) (human, UniProt Q14627 27-343)
T1 construct: Recombinant soluble antigen coated on ELISA plates or used in Biacore; also called rec hIL-13Rα2; rhIL-13Rα2
T1 sequence (looked up): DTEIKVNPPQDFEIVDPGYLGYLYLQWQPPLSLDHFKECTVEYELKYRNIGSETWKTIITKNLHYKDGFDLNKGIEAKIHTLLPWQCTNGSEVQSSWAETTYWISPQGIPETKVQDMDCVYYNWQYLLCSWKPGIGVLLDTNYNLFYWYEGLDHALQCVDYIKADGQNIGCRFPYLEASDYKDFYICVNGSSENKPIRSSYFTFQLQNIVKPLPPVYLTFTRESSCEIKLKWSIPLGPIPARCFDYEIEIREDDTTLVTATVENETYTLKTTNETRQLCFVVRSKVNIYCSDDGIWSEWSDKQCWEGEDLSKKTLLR

T2: cynomolgus monkey IL-13-Rα2 ECD/TM domain with C-terminal Flag tag, on transfected HEK293 cells (cynomolgus monkey, UniProt Q14627 27-363 (human entry))
T2 construct: also called cyno-IL-13-Rα2; cyno IL-13Rα2; not shown: Flag tag at the C-terminal end
T2 chain: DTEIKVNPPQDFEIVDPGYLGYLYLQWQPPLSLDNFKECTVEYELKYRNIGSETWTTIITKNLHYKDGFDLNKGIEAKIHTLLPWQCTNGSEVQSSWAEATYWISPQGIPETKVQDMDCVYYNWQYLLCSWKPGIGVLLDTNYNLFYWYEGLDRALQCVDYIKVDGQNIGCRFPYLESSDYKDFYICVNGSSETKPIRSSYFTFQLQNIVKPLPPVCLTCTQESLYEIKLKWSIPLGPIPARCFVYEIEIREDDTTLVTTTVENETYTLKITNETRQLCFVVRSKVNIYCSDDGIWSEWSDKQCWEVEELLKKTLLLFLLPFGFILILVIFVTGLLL

T3: recombinant human IL-13 receptor alpha 1 (hIL-13Rα1) (human, UniProt P78552 22-343)
T3 construct: also called hIL-13Ra1
T3 sequence (looked up): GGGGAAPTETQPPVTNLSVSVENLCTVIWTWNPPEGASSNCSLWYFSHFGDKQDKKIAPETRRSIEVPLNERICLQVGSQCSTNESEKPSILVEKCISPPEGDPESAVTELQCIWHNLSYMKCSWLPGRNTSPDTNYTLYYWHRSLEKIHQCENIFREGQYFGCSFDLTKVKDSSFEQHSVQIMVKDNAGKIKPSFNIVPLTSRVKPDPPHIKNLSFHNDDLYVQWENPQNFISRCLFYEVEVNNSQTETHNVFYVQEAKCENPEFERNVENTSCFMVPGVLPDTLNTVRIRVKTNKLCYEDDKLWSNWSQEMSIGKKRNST

B1: chimeric antibody ch07 (antibody, human IgG1, V domains shown)
VH: QVQLKESGPGLVAPSQSLSINCTVSGFSLTKYGVHWIRQSPGKGLEWLGVKWAGGSTDYNSALMSRLTISKDNNKSQVFLKMNSLQSDDSAMYYCARDHRDAMDYWGQGTSVTVSS
VL: QVVLTQSPAIMSASPGERVTMTCTASLSVSSTYLHWYHQKPGSSPKLWIYSTSNLASGVPARFSGSGSGTSYSLTISSMEAEDAATYYCHQYHRSPLTFGSGTKLELK
notes: also called chimeric antibody 07; biotin-ch07 (biotinylated form)
B2: chimeric antibody ch08 (antibody, human IgG1, V domains shown)
VH: EVQLVESGGDLVRPGGSLQLSCAASGFTFSRNGMSWVRQTPDRRLEWVATVSSGGSYIYYADSVKGRFTISRDNARNTLYLQMSSLKSEDTAMYYCARQGTTALATRFFDVWGAGTTVTVSS
VL: DIVMTQSHKFISTSVGDRVSITCKASQDVGTAVAWYQQIPGQSPKLLIYSASYRSTGIPDRFTGSGSGTDFSFIISSVQAEDLALYYCQHHYSAPWTFGGGTTLDIK
notes: also called ch08Hc + Lc; chimeric antibody 08

Assays:
[1] = molecular target: T1, recombinant human IL-13 receptor alpha …; assay: direct ELISA on recombinant hIL-13-Rα2 (given as ED50)
Description: (§1) Chimeric antibodies 07 and 08 (ch07 and ch08) were constructed having murine heavy chain and light chain variable region sequences with human IgG1 heavy chain constant regions and human kappa light chain constant regions using methods known in the art. To assess the binding activity and specificity of ch07 and ch08, a standard direct ELISA protocol was performed utilizing recombinant hIL-13-Rα2 and hIL-13Ra1, receptors for IL-13 cytokine. The binding was detected by horseradish peroxidase (HRP) conjugated goat anti-human IgGKappa.

[2] = molecular target: T1, recombinant human IL-13 receptor alpha …; assay: SPR Biacore, human Fab Capture Kit, 1:1 Langmuir model, pH 6.0
Description: (§2) To assess the binding kinetics of the ch07 and ch08 antibodies, SPR (Surface Plasmon Resonance) experiments were conducted on a Biacore® T100 or T200 instrument using a Biacore® human Fab Capture Kit (GE Healthcare). All data was analyzed using the Biacore® T100 evaluation software version 2.0 with a 1:1 Langmuir binding model.

[3] = molecular target: T1, recombinant human IL-13 receptor alpha …; assay: SPR Biacore, human Fab Capture Kit, 1:1 Langmuir model, pH 7.4
Description: as §2

[4] = molecular target: T2, cynomolgus monkey IL-13-Rα2 ECD/TM …; assay: FACS on HEK293 cells transfected with cyno-IL-13-Rα2 (given as ED50)
Description: The ECD/TM domain of cyno IL-13-Rα2 fused with Flag tag at the C-terminal end was cloned into the pSMED2 expression vector. HEK293 suspension cells were transiently transfected with cyno-IL-13-Rα2 containing plasmid and pSMED2 vector (as a mock transfection). The cells were harvested 72 hours later and subjected to FACS analysis. 4 antibodies including ch07, ch08, hu08v1.0/1.0 and hu08v1.1/1.1 were tested. The binding on the cell surface cyno-IL-13-Rα2 was detected with R-Phycoerythrin-labeled goat anti-human or mouse IgG.

[5] = molecular target: T3, recombinant human IL-13 receptor alpha …; assay: direct ELISA on plate-coated recombinant hIL-13Rα1, detected with HRP goat anti-human Ig kappa
Description: as §1

[6] = molecular target: T1, recombinant human IL-13 receptor alpha …; assay: competition ELISA on plate-coated recombinant hIL-13-Rα2; competitor: constant amount of biotin-ch08, detected with streptavidin-HRP
Description: A competition ELISA was performed to examine whether ch07 and ch08 have distinct binding epitopes. Prior to the competition ELISA experiment, ch07 and ch08 were biotinylated. The EC50 of the biotinylated ch07 (biotin-ch07) and ch08 (biotin-ch08) were determined by direct standard ELISA. For the competition ELISA, recombinant hIL-13-Rα2 was coated onto 96-well plates at 50 ul of 2 μg/mL in PBS overnight at 4° C. The plates were then blocked and washed following a standard ELISA protocol. 3-fold serially diluted ch07 and ch08 (2× final concentration) were mixed with a constant amount of biotin-ch07 (FIG. 2A) or biotin-ch08 (FIG. 2B), respectively and were added to the plate and incubated for 1 hour at room temperature. The amount of biotinylated chimeric antibody bound was detected by HRP conjugated streptavidin at 1:5000 for 1 hour. […] Similar results are obtained when the same set of antibodies were used to compete with biotin-ch08 (FIG. 2B).

Binder	EC50 [1] [nM]	Kd [2] [nM]	koff [2] [s⁻¹]	kon [2] [M⁻¹ s⁻¹]	Kd [3] [nM]	koff [3] [s⁻¹]	kon [3] [M⁻¹ s⁻¹]	EC50 [4] [nM]	binding result [5]	IC50 (read off the curve) [6] [nM]
B1	0.15	5.24	0.000337	64300	0.648	0.000234	361000	1.49	no binding (tested: about 7 nM)	
B2	0.076	5.36	0.000381	71200	0.964	0.000416	432000	1.81	no binding (tested: about 7 nM)	~6
